These results are taken from publication PMC6787100.

“And” between values parts separate entries of the source, which are not always exact repeats. Equal values may be shown once.

The target of experiment [1] is Hag (ex), recombinant Hag with the flg22 region replaced by flg22 (Ps) (Bacillus subtilis BSn5 | Pseudomonas syringae). Briefly: MST; protein labelled with Cy5-NHS ester at fixed concentration, serial 2x dilutions of unlabelled subtilomycin (1 mM set as highest; 500 μM highest final in the legend); PBS pH 8.0; MST power 20%, LED power 60%; Monolith NT.115; constants called ambiguous, based on total subtilomycin concentration.

Experiment [2] addresses lantibiotic subtilomycin (Bacillus subtilis BSn5). Briefly: tricine-SDS-PAGE; purified subtilomycin on 16% tricine-SDS-PAGE; bands of around 9, 12 and 15 kDa; oligomers of subtilomycin.

The term Kd denotes a measure of binding affinity in units of concentration. One may read the stoichiometry N as the number of molecules, sites or subunits per partner or assembly. For lantibiotic subtilomycin (peptide), in experiment [1], the dissociation constant (Kd) amounted to 80.6 µM. In experiment [2], the stoichiometry N is 3 and 4 and 5.
